Tests used:
[1] = biological target: T1, Mnl1(C644S), FLAG-tagged (S. cerevisiae, UniProt P38888 21-796, C644S); test: cross-linking
T1 sequence (looked up): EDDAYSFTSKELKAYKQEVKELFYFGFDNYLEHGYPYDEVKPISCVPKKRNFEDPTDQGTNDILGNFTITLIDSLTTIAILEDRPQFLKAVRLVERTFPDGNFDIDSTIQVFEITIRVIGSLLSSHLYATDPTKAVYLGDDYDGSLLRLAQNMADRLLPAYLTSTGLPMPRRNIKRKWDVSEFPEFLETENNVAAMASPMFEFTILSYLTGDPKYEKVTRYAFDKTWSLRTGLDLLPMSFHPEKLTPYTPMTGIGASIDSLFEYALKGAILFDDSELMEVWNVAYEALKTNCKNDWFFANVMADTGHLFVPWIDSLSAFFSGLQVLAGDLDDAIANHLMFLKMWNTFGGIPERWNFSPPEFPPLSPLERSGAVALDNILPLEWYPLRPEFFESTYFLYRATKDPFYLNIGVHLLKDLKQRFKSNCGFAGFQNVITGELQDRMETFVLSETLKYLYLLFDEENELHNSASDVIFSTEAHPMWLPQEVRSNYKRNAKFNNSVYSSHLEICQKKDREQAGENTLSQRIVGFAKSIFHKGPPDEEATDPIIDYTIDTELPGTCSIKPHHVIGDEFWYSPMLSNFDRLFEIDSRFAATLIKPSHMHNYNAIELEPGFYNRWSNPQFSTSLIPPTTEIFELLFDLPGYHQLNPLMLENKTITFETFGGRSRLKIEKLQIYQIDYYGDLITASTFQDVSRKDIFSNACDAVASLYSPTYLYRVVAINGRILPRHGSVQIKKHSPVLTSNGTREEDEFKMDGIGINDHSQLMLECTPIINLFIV

[2] = biological target: T2, Mnl1(C579S), FLAG-tagged (S. cerevisiae, UniProt P38888 21-796, C579S); test: cross-linking
T2 sequence (looked up): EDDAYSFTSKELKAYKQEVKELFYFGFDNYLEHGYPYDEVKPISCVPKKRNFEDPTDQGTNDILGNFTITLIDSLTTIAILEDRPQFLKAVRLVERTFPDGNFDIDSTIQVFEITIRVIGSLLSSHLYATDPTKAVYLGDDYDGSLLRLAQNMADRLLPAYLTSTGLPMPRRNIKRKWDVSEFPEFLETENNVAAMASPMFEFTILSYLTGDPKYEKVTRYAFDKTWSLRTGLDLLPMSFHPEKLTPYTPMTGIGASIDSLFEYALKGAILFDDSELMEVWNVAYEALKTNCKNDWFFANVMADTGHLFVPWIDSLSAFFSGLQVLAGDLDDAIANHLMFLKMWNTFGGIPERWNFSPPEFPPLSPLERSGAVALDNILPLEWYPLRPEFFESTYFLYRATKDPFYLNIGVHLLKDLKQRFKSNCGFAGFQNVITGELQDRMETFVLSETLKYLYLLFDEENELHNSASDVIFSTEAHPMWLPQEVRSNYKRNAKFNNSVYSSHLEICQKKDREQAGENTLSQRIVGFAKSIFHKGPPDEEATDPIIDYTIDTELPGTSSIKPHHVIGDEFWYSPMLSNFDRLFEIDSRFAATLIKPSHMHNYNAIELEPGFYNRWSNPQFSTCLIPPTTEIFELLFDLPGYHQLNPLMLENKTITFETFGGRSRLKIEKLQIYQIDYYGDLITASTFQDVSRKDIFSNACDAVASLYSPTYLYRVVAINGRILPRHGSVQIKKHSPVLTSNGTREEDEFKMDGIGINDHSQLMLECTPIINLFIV

[3] = biological target: T3, FLAG-tagged Mnl1 (Mnl1-FLAG) (S. cerevisiae, UniProt P38888 21-796); test: cryo-EM structure
T3 sequence (looked up): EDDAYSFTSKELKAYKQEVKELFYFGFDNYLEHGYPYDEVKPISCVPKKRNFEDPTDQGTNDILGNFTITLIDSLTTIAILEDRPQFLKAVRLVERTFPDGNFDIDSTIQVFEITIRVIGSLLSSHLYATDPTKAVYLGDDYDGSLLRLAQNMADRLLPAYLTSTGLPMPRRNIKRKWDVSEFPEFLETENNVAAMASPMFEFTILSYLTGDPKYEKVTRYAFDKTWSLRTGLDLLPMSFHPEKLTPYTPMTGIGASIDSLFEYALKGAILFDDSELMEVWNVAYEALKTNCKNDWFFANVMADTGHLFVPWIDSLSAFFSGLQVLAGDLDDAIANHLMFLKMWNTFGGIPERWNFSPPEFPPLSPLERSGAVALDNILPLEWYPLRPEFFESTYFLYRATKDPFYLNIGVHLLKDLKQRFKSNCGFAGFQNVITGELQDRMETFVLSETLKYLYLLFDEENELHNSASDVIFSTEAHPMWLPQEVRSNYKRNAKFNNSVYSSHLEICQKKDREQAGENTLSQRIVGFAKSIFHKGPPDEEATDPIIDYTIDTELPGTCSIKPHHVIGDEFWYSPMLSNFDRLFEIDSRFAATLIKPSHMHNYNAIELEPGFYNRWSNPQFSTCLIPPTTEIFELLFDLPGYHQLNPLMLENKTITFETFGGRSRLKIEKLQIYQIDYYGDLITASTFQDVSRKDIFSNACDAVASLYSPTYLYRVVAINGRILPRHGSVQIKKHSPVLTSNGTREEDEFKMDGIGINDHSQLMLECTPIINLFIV

[4] = biological target: T4, Mnl1 mCTD mutant (L655N, F770Y, M772K), FLAG-tagged (S. cerevisiae, UniProt P38888 21-796, L655N | F770Y | M772K); test: co-IP + SEC
T4 sequence (looked up): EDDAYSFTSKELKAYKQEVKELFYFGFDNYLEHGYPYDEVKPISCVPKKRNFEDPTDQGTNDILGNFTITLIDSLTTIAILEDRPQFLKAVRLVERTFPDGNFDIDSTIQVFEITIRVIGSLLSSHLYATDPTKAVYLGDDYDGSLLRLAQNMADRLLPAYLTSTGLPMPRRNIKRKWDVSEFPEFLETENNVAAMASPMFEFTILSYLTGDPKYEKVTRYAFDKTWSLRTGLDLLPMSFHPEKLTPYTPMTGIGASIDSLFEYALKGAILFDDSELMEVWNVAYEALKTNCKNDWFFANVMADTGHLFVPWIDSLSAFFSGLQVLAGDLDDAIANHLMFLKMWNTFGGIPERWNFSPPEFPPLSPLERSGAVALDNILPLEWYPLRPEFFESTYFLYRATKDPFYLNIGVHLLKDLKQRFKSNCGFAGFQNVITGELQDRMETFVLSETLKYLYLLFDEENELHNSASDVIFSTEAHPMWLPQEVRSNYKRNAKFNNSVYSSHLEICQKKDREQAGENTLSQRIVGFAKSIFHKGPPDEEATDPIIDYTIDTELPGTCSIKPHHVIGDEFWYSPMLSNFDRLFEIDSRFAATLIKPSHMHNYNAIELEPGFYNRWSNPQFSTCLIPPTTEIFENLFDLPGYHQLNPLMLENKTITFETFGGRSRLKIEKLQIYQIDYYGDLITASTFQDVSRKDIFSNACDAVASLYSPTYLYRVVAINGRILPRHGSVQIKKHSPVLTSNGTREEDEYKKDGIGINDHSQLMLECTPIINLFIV

binding result [1]: binds
binding result [2]: binds
binding result [3]: binds
binding result [4]: binds
B1: protein disulfide isomerase (Pdi1) (enzyme, S. cerevisiae, UniProt P17967 29-522, looked up)
chain: PEDSAVVKLATDSFNEYIQSHDLVLAEFFAPWCGHCKNMAPEYVKAAETLVEKNITLAQIDCTENQDLCMEHNIPGFPSLKIFKNSDVNNSIDYEGPRTAEAIVQFMIKQSQPAVAVVADLPAYLANETFVTPVIVQSGKIDADFNATFYSMANKHFNDYDFVSAENADDDFKLSIYLPSAMDEPVVYNGKKADIADADVFEKWLQVEALPYFGEIDGSVFAQYVESGLPLGYLFYNDEEELEEYKPLFTELAKKNRGLMNFVSIDARKFGRHAGNLNMKEQFPLFAIHDMTEDLKYGLPQLSEEAFDELSDKIVLESKAIESLVKDFLKGDASPIVKSQEIFENQDSSVFQLVGKNHDEIVNDPKKDVLVLYYAPWCGHCKRLAPTYQELADTYANATSDVLIAKLDHTENDVRGVVIEGYPTIVLYPGGKKSESVVYQGSRSLDSLFDFIKENGHFDVDGKALYEEAQEKAAEEADADAELADEEDAIHDEL
